These results are taken from patent US20070207967A1, “Peptide Inhibitors of Matrix Metalloproteinase Activity” (CTT CANCER TARGETING TECHNOLOGIES OY, priority 2004, published 2007).

Test [1] addresses T1, pro-MMP-9 (Homo sapiens, UniProt P14780). Nature of the test: Phage binding to pro-MMP-9 with competitors. The note with it: competitor peptides 20 μM, gelatin 2.5 μg/ml, TIMP-1 2.5 μg/ml. The method, then: (§1) Phage display. Phage display selections were made using random peptide libraries CX7-10C and X9-10 (13). Purified human pro-MMP-9 (9) or recombinant MMP-9 C domain (2 μg/ml) was immobilized on microtiter wells and the wells were blocked with BSA. The phage were added in 50 mM Hepes (pH 7.5)/5 mM CaCl2/1 μM ZnCl2/150 mM NaCl/2% BSA. After three rounds of selection the phage sequences were determined (14). The phage binding specificity was tested with pro-MMPs or the recombinant domains (20 ng/well). The phage (10^8 transducing units/well) were allowed to bind in the absence or presence of competitor peptides (20 μM), gelatin (2.5 μg/ml) or TIMP-1 (2.5 μg/ml, Calbiochem) followed by washings with PBS/0.05% Tween20 (PBST). The phage were detected with a peroxidase-conjugated anti-phage antibody (Amersham Biosciences).

The target of the next test is T2, MMP-9 C domain (Homo sapiens, UniProt P14780).
T2 construct: MMP-9 (Asp^494-Asp^688) were expressed as described (16); made in house; host or cells: E. coli (β5 fragment)
T2 sequence (P14780 513-707 limits assumed): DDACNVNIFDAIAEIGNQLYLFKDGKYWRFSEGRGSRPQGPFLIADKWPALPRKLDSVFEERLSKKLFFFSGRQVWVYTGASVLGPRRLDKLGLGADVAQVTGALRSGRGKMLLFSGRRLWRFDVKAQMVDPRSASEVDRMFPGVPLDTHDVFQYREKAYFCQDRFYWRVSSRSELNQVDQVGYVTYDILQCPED
Nature of the test: CRV phage binding to recombinant MMP-9 C domain. The following applies: TIMP-1 2.5 μg/ml. On the procedure:
as §1
Expression of the MMP and integrin domains. CBD (amino acids Gly^204-Gly^373) was amplified from MMP-9 cDNA with the oligonucleotides 5′-[…]-3′ and 5′-[…]-3′ incorporating NdeI and PstI restriction sites. The PCR product was ligated into pTWIN vector (New England Biolabs). CBD was expressed in E. coli and purified using gelatin-sepharose (Amersham Biosciences). For some experiments, CBD was biotinylated with sulfo-NHS-LC-biotin (Pierce). The C-terminal domains of MMP-2 (Glu^438-Cys^631) and MMP-9 (Asp^494-Asp^688) were expressed as described (16). […]

Test [2] deals with β5 integrin-transfected CS-1 melanoma cells. Nature of the test: 125I-C domain binding to cells. The note with it: unlabelled proteins 50 μg/ml, peptides 50 μM. It counts as cell-based, hamster. On the procedure: ^125I-C domain binding to cells. The MMP-9 C domain was labelled with ^125I to a specific activity 0.06 μCi/pmol. The labelled domain retained 40% of the CRV peptide-binding activity as shown by the phage-binding assay. […] After a preincubation of 1.5×10^6 cells in a 200 μl volume on ice for 30 min with the competitors, ^125I-labelled C domain (1×10^6 cpm) was added and incubated for three hours on ice. The cells were transferred to tubes containing 200 μl of dibutyl phthalate/cyclohexane mixture (23:2 vol/vol), centrifuged 7500×g for 10 minutes and snap-frozen (24). The bottom of the tube containing the cells were cut and analyzed with a gamma-counter.

Test [3] deals with T1, pro-MMP-9. Nature of the test: Pro-MMP-9 activation in THP-1 cells, zymography. The test is classed as cell-based. The note with it: THP-1, pro-MMP-3 and plasminogen, peptides 200 μM. On the procedure:
Activation of MMP-9. THP-1 cells (40 000/100 μl) or confluent HT1080 cells were incubated for 16 h in the presence or absence of 2.5 μg/ml plasminogen, 0.5 μg/ml pro-MMP-3 (Oncogene Research Products), 40 nM PDBu, and the peptides at a 200 μM concentration unless otherwise indicated. Aliquots of the conditioned media were analyzed by gelatin zymography (9). […] The samples were analyzed by gelatin zymography.

In test [4] the target is T3, αM integrin I domain (Homo sapiens, UniProt P11215). The note with it: ref (12); cited from earlier work.
Test [5] concerns the target T3, αM integrin I domain. In words: Pro-MMP-9 binding to αM integrin I domain. The method, then: Pro-MMP-9 and gelatin binding to leukocyte αM integrin. Pro-MMP-9 binding to the αM I domain in the presence of peptides was studied as described (12). Gelatin binding to the pro-MMP-^9/αMβ2 integrin complex was studied by immobilizing the integrin αMβ2 (12) or αIIbβ3 as a control (Enzyme Research Laboratories, South Bend, Ind.) (1 μg/well) in TBS/1 mM CaCl2/1 mM MgCl2 followed by saturation of the wells with 1% BSA in PB ST. Pro-MMP-9 (100 ng/well) was incubated for 2 h and the unbound pro-MMP-9 was washed away. Biotinylated gelatin (2.5 μg/ml) was allowed to bind for 30 min at room temperature. Bound gelatin was detected with streptavidin-peroxidase.

The next test deals with neutrophil recruitment. The note with it: acute inflammation model in mice; ref (48); cited from earlier work.
A further test has as its system leukocytes. The following applies: ref (12); cited from earlier work.

T3 sequence (P11215 150-328 limits assumed): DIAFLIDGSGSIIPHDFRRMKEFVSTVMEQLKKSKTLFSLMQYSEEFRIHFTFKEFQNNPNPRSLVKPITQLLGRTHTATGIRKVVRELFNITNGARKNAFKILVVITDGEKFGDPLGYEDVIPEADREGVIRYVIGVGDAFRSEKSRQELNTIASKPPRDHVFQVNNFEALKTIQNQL
T1 sequence (P14780 20-707 limits assumed): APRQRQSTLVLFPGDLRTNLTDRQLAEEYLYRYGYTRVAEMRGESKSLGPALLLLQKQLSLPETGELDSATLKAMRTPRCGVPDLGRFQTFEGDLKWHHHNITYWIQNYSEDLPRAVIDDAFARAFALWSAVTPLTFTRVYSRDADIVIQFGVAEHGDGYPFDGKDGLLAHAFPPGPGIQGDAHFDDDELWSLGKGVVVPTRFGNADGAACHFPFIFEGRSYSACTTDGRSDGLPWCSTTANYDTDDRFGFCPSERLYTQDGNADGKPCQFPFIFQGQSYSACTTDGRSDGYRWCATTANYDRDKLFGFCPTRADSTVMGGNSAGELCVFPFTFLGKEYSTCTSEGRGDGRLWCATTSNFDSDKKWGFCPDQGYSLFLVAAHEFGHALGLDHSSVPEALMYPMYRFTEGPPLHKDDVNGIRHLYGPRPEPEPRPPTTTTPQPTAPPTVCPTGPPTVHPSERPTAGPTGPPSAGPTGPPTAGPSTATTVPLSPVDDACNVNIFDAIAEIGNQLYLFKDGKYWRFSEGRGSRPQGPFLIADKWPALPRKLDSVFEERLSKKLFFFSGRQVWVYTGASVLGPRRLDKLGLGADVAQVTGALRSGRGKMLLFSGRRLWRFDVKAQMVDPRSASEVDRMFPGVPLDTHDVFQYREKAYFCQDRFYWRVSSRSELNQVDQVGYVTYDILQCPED

Regarding “TIMP-1: tissue inhibitor of MMPs (Calbiochem)”, in the test with pro-MMP-9 [1], the “Binding of the CRV-phage to pro-MMP-9, competition” value was “could not compete”. Also, in the test with MMP-9 C domain, the “CRV phage binding to the MMP-9 C domain, competition” value is “could not compete”.
For GRGDSP [reference compound], in test [2], the “Competition of 125I-labelled MMP-9 C domain binding to β5 integrin-transfected CS-1 cells” value was “No competition”.
Turning to ADGACILWMDDGWCGAAG, the “Effect on pro-MMP-9 activation” value in the test with pro-MMP-9 [3] is on record as “augmented”. Further, in the test with αM integrin I domain [4], the “Competition with pro-MMP-9 binding to I domain of αM integrin subunit” value is “competed”. The “Effect on interaction of MMP-9 with the leukocyte αM integrin I domain” value with αM integrin I domain [5] is “blocked”. In addition, the “Inhibition of neutrophil recruitment” value in the test on neutrophil recruitment was “active in vivo inhibiting neutrophil recruitment”. Further, the “Inhibition of migration of leukocytes” value in the test on leukocytes is given as “inhibited migration of leukocytes”.
